This is an account of results in patent US20210292393A1 (published 2021).

What is called Kd is a measure of binding affinity in units of concentration. Read a high Kd as a looser complex.

B1: antibody 421 (antibody, V domains shown)
VH: QVQLVESGGGVVQPGRSLRLSCAASGFTFSTYAMHWVRQAPGKGLEWVAVISYDGSNKYYADSVKGRFTISRDNSKNTLYLQMNSLRAEDTAVYYCARGYGSGSYYPLYLYWGQGTLVTVSS
VL: not shown
B2: antibody 420 (antibody, V domains shown)
VH: QVQLVESGGGVVQPGRSLRLSCAASGFTFSSYGMHWVRQAPGKGLEWVAVIWYDGSNKYYADSVKGRFTISRDNSKNTLYLQMNSLRAEDTAVYYCAKDGGDYGDVNFDYWGQGTLVTVSS
VL: SYELTQPPSVSVSPGQTARITCSGDALPKQYAYWYQQKPGQAPVLVIYKDSERPSGIPERFSGSSSGTTVTLTISGVQAEDEADYYCQSAGSSGNYKVFGGGTKLTVL
B3: antibody 409 (antibody, V domains shown)
VH: QVTLRESGPALVKPTQTLTLTCTFSGFSLSTSGMCVSWIRQPPGKALEWLALIDWDDDKYYSTSLKTRLTISKDTSKNQVVLTMTNMDPVDTATYYCARTTYYYVSGRRAEFDPWGQGTLVTVSS
VL: NFMLTQPHSVSESPGKTVTISCTGSSGSIASNYVQWYQQRPGSAPTTVIYEDNQRPSGVPDRFSGSIDSSSNSASLTISGLKTEDEADYYCQSYDSSNQGVFGGGTKLTVL
B4: antibody 395 (antibody, V domains shown)
VH: QVQLVQSGSELKKPGASVKLSCQASGYTFSNHAMNWVRQAPGQGLEWMGWINTNTGNPTYAQGFTGRFVFSLDTSVGTAYLHISSLKAEDTAFYYCARASARPGVATNLDFWGQGTLVVVSS
VL: DIQMTQSPSSLSASVGDRVTITCRTSQNIDNYLNWYQQKPGKAPNLLIYAASRLHSGVPSRFSGSGSGTDFTLIISSLQPEDLATYYCQQSYSNPLTFGPGTKVDIR
B5: antibody 422 (antibody, V domains shown)
VH: QVQLVQSGSELKKPGASVKVSCKASGYTFTSYAMNWVRQAPGQGLEWMGWINTNTGNPTYAQGFTGRFVFSLDTSVSTTYLQISSLKAEDTAVYYCARVIGVVTYYYYGMDVWGQGTTVTVSS
VL: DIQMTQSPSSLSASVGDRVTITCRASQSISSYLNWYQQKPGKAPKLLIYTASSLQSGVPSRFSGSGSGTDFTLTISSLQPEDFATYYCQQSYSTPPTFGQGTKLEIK
B6: antibody 385 (antibody, V domains shown)
VH: QVQLVESGGGVVQPGRSLRLSCAASGFTFSSYAIHWVRQAPGKGLEWVAVISYDGSNKYYADSVKGRFTISRDNSKNTLYLQMNSLRAEDTAVYYCARPRSGSYWGAFDIWGQGTMVTVSS
VL: QSVLTQPPSVSGAPGQRVTISCTGSSSNIGARYDVHWYQQLPGTAPKLLIYGNSNRPSGVPDRFSGSKSGTSASLAITGLQAEDEADYYCQSYDSSLRGVFGGGTKLTVL
B7: antibody 423 (antibody, V domains shown)
VH: EVQLVESGGGLIQPGGSLRISCAASGFTVRNNHMSWVRQAPGKGLEWVSVFYRGGTTYYADSVKGRFTISRDDSKNTVDLQMNSLRGEDTAVYYCARGLSVAASGYFDCWGQGTLVTVSS
VL: DIQMTQSPSSVSASVGDTVTITCRANQGISSWLAWYQQVPGKAPELLIYATSTLQSGVPSRFSGSGSGTDFTLTISSLQPEDFATYYCQQANSFPFTFGPGTKVDIK
B8: antibody 405 (antibody, V domains shown)
VH: not shown
VL: QSALTQPRSVSGSPGQSVTISCTGTSSDVGGYNYVSWYQQHPGKAPKLMIYDVSKRPSGVPDRFSGSKSGNTASLTISGLQAEDEADYYCCSYAGSYNVVFGGGTKLTVL
B9: antibody 431 (antibody, V domains shown)
VH: QVQLVESGGGVVQPGRSLRLSCAASGFTFSSYAMHWVRQAPGKGLEWLAVISYDGSNKYYADSVKGRFTISRDNSKNTLYLQMNSLRAEDTAVYYCARSFRGGYYYGMDVWGQGTTVTVSS
VL: DIQLTQSPSFLSASVGDRVTITCRASQGISSYLAWYQQKPGKAPKLLIYAASTLQSGVPSRFSGSGSGTEFTLTISSLQPEDFATYYCQQLNSYPLFTFGPGTKVDIK
B10: antibody 571 (antibody, V domains shown)
VH: EVQLVESGGGLVQPGGSLRLSCAASGFTFSTYWMTWVRQAPGKGLEWVANIKHDGSGKYHVDSVKGRFTISRDNAKNSLYLQMNSLRAEDTAVYYCTRDEGGWYDYWGQGTLVTVSS
VL: QSALTQPASVSGSPGQSITISCTGTSSDVGSYNPVSWYQQHPGKAPKVMIYEGSKRPSGVSNRFSGSKSGNTASLTISGLQAEDEADYYCCSYARSSTFVVFGGGTKLTVL
B11: anti-SARS-CoV-2 antibody 475 (antibody, V domains shown)
VH: QVQLVESGGGVVQPGRSLRLSCAASGFTFSSYAMHWVRQAPGKGLEWVTFISHEGSNKYYADSVKGRFTISRDNSKNTLYLQMNSLRAEDTAVYYCARTFEYSSSSATGDFDYWGQGTLVTVSS
VL: QSVLTQPPSVSGAPGQRVTISCTGSSSNIGAGYDVHWYQQLPGTAPKLLIYGNSNRPSGVPDRFSGSKSGTSASLAITGLQAEDEADYYCQSYDSSLSGVVFGGGTKLTVL
B12: anti-SARS-CoV-2 antibody 496 (antibody, V domains shown)
VH: QVQLVQSGAEVKKPGASVKVSCKASGYTFTDYYIHWVRQAPGQGLEWMGWINPNSGGTNYAQKFQGRLTMTRDTSISTAYMELSRLRSDDTAVYYCARVYSMFREFIINPYYYYYGLDVWGQGTTVTVSS
VL: QSALTQPASVSGSPRQSITISCTGTSSDVGSYNLVSWYQQHPGKAPKLMIYEGSKRPSGVSNRFSGSKSGNTASLAISGLQAEDEANYYCCSYAGSSTLVFGGGTKLTVL
B13: anti-SARS-CoV-2 antibody 476 (antibody, V domains shown)
VH: QVQLVQSGSELKKPGASVKVSCKASGYTFTSYAMNWVRQAPGQGLEWMGWINTNTGNPTYAQGFTGRFVFSLDTSVSTAYLQISSLKAEDTGVYYCARDHELPNSSSWFGHFEYWGQGTLVTVSS
VL: SYELTQPPSVSVSPGQTARITCSGDALPKQYAYWYQQKAGQAPVLVIYKDSERRSGIPERFSGSSSGTTVTLTISGVQAEDEADYYCQSADSSGTSVVFGGGTKLTVL
B14: anti-SARS-CoV-2 antibody 492 (antibody, V domains shown)
VH: QVQLVESGGGVVQPGRSLRLSCAASGFTFSSYGMHWVRQAPGKGLEWVAVISYDGSNKYYADSVKGRFTISRDNSKNTLYLQMNSLRAEDTAVYYCAKDGILWWWWGYFDYWGQGTLVTVSS
VL: QSVLTQPPSVSGAPGQRVTISCTGSSSNIGAGFDVHWYQQLPGTAPKLLIYGNSNRPSGVPDRFSGSKSGTSASLAITGLQAEDEADYYCQSYDSSLSVVFGGGTKLTVL
B15: anti-SARS-CoV-2 antibody 480 (antibody, V domains shown)
VH: QVQLVESGGGVVQPGRSLRLSCAASGFTFSSYAMHWVRQAPGKGLEWVAVISYDGNNKYYADSVKGRFTISRDNSKNTLYLQMNSLRAEDTAVYYCVRTNSGSYYAAFDYWGQGTLVTVSS
VL: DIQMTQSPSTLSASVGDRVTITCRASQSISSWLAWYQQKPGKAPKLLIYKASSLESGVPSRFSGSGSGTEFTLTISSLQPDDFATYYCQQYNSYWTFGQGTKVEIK
B16: anti-SARS-CoV-2 antibody 497 (antibody, V domains shown)
VH: QVQLQESGPGLVKPSQTLSLTCTVSGGSINSFGYYWSWIRQHPGKGLEWIGYIYYSGSTDYNPSLNSRVTISLDTSKNQFLLKLTSVTAADTAVYYCAKLTDYYDSSGYSFDYWGQGTLVTVSS
VL: DIQMTQSPSSVSASVGDRVTITCRASQDISRWLAWYQQKPGKAPKLLIYAASSLQSGVPSRFSGRGSGTELTLTISSLQPEDFATYFCQQAYSFPFTFGGGTKVEIK
B17: anti-SARS-CoV-2 antibody 477 (antibody, V domains shown)
VH: QVQLVESGGGVVQPGRSLRLSCAASGITFSSYAMHWVRQAPGKGLEWVAVISYDGSDKYHADSVKGRFAISRDNSKNTLYLQMNSLRAEDTAVYYCAKDKGIAVAGTGWIRPDPEYYFDYWGQGTLVTVSS
VL: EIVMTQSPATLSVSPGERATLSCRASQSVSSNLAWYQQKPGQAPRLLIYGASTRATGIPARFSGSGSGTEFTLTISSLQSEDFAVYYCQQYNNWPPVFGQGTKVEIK
B18: anti-SARS-CoV-2 antibody 470 (antibody, V domains shown)
VH: not shown
VL: QSALTQPASVSGSPGQSITISCTGTSSDVGSYNLVSWYQQHPGKAPKLMIYEVSKRPSGVSNRFSGSKSGNTASLTISGLQAEDEADYYCCSYAGSSTLVFGGGTKLTVL
B19: anti-SARS-CoV-2 antibody 456 (antibody, V domains shown)
VH: QVQLQQWGAGLLKPSETLSLTCAVYGGSFSGYYWSWIRQPPGKGLEWIGEINHSGSTNYNPSLKSRVTISVDTSKNQFSLKLSSVTAADTAVYYCARDGSGSYYLSYYFDYWGQGTLVTVSS
VL: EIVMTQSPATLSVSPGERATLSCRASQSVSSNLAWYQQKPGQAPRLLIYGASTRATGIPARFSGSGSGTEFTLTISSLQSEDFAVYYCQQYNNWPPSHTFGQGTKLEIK
B20: anti-SARS-CoV-2 antibody 471 (antibody, V domains shown)
VH: QVQLVESGGGVVQPGRSLRLSCAASGFTFSSYAMHWVRQAPGKGLEWVAVISYDGSNKYYADSVKGRFTISRDNSKNTLYLQMNSLRAEDTAVYYCAKQYSPYCSGGSCYSGASDYWGQGTLVTVSS
VL: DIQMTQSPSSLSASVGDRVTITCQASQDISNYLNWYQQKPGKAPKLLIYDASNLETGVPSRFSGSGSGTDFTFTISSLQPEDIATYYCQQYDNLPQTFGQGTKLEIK
B21: antibody 414 (antibody, V domains shown)
VH: QVQLVQSGAEVKKPGASVKVSCKASGYTFTSYYMHWVRQAPGQGLEWMGIINPSGGSTSYAQKFQGRVTMTRDTSTSTVYMELSSLRSEDTAVYYCARDPPGRDFWSGYYFGAPDYYYYYGMDVWGQGTTVTVSS
VL: DIQMTQSPSSLSASVGDRVTITCRASQGISNYLAWFQQKPGKAPKSLIYAASSLQSGVPSKFSGSGSGTDFTLTISSLQPEDFATYYCQQYNSYPYTFGQGTKLEIKR
B22: antibody 364 (antibody, V domains shown)
VH: EVQLVESGGGLVQPGRSLRLSCTASGFTFGDYAMSWFRQAPGKGLEWVGFIRSKAYGGTTEYAASVKGRFTISRDDSKSIAYLQMNSLKTEDTAVYYCTRFGIDYDYIWGSYRYTTLFDYWGQGTLVTVSS
VL: not shown

The first test concerns the target SARS-CoV-2 full length spike protein, wild type, expressed on the surface of transiently transfected CHO cells (SARS-CoV-2, UniProt P0DTC2 14-1273).
Experiment: not given
As to B1, the “median fluorescence fold over isotype control” value came to 9.23 fold over isotype.
Still for that read-out and setting: the value for B2 was 1.99 fold over isotype; that for B3 was 13.8 fold over isotype; that for B4 was 7.8 fold over isotype.
In the case of B5, the “median fluorescence fold over isotype control” value is 19.6 fold over isotype.
Consider B6, for which the “median fluorescence fold over isotype control” value came to 10.5 fold over isotype.
Same read-out and setting: the value for B7 was 14.6 fold over isotype; that for B8 was 9.7 fold over isotype.
On the same count and under the same terms, the value for B9 was 10.7 fold over isotype.

The next test deals with SARS-CoV-2 full length spike (S) protein, wild type, expressed on the surface of CHO cells (SARS-CoV-2, UniProt P0DTC2 14-1273).
Experiment: not given
In the case of B10, the “median fluorescence intensity, fold over isotype control” value turned out to be 8.3 fold over isotype.

A further test deals with SARS-CoV-2 spike (S) protein, full length, wild type (SARS-CoV-2, UniProt P0DTC2 14-1208).
Experiment: not given
For B11, the “median fluorescence fold over isotype” value is 683 fold over isotype.
The same measure, in the same setting: the value for B12 was 1090 fold over isotype; that for B13 was 902 fold over isotype.
Same read-out and setting: the value for B14 was 664 fold over isotype.
On the same count and under the same terms, with B15 the figure was 690 fold over isotype; with B16, 630 fold over isotype; with B17, 847 fold over isotype.
With B18, the “median fluorescence fold over isotype” value worked out at 1180 fold over isotype.
Turning to B19, the “median fluorescence fold over isotype” value was 595 fold over isotype.
Consider B20, for which the “median fluorescence fold over isotype” value amounted to 770 fold over isotype.

For another test, the target named is T1, SARS-CoV-2 spike protein (nCoV-S Spike Protein Trimer, NIH) (SARS-CoV-2, UniProt P0DTC2 14-1208).
T1 construct: also called S protein
As to the kind of experiment: HT-SPR (Carterra LSA), mAb on chip, SARS-CoV-2 spike protein titrated, 25 C.
Take B21: binding was put at a Kd of 7.93 nM.
Same read-out and setting: the value for B22 was 7.61 nM.

A further test addresses T1, SARS-CoV-2 spike protein (nCoV-S Spike …). As to the kind of experiment: HT-SPR (Carterra LSA), mAb on chip, SARS-CoV-2 spike protein titrated, 37 C.
B21 gave a dissociation constant (Kd) of 5.21 nM.
Still for that read-out and setting: with B22 the figure was 0.0233 nM.
